Legend:
[1] = molecular target: FIT-1 bispecific antibody (Fabs-in-tandem-Ig, ZKA190 outer Fab, ZKA185 inner Fab, IgG1 LALA) (human); assay: SPR
[2] = molecular target: T1, recombinant DIII of ZIKV E protein (Brazil 2015 strain SPH2015) (Zika virus, Brazil 2015 strain SPH2015, strain); assay: SPR
T1 chain: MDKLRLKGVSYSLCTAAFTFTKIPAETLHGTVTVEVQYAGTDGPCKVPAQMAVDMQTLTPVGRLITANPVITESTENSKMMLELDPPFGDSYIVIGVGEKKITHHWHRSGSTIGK

[3] = molecular target: T1, recombinant DIII of ZIKV E protein …; assay: NMR titration

“recombinant E protein from ZIKV (natural protein)” showed a Kd [1] of under 1 pM.

B1: ZKA190 IgG (antibody, V domains shown)
VH: QVQLVESGGGVVQPGRSLRLSCAASGFTFSKYGMHWVRQAPGKGLEWVAVISYEGSNKYYADSVKGRFTISRDNSKNTLYLQMNSLRAEDTAVYYCAKSGTQYYDTTGYEYRGLEYFGYWGQGTLVTVS
VL: EIVLTQSPGTLSLSPGERATLSCRASQSVSSSYLAWYQQKRGQAPRLLIYDASSRATGIPDRFSGSGSGTDFTLTISRLEPEDFAVYYCQQYGRSRWTFGQGTKVEIK
B1: binds [2].

B2: ZKA190 Fab (Fab, V domains shown)
VH: QVQLVESGGGVVQPGRSLRLSCAASGFTFSKYGMHWVRQAPGKGLEWVAVISYEGSNKYYADSVKGRFTISRDNSKNTLYLQMNSLRAEDTAVYYCAKSGTQYYDTTGYEYRGLEYFGYWGQGTLVTVS
VL: EIVLTQSPGTLSLSPGERATLSCRASQSVSSSYLAWYQQKRGQAPRLLIYDASSRATGIPDRFSGSGSGTDFTLTISRLEPEDFAVYYCQQYGRSRWTFGQGTKVEIK
B2: binds [3].

— publication PMC5673489 (Cell, 2017)
